± gives the uncertainty stated by the source.

A short description of this data set: amyloid nucleation score (Sup35N fusion, yeast selection) (log enrichment); library NNK3; higher = more nucleation; inactive = no reads after selection. An outline of the steps:
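The nucleation score is the DiMSum log enrichment of output over input reads, centred on the mode score of non-aggregating sequences. Only sequences with 100 or more input reads were scored, using Illumina sequencing of input and output plasmid inserts. Psi-negative yeast expressing Sup35N fused to peptides of 20 random codons were induced 24 hours with 100 μM copper sulfate and grown 7 days at 30°C on medium lacking adenine and uracil.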

In turn, NWCILTLNGVSGRIRLPCWS yielded an amyloid nucleation score of 0.405 ± 0.19.

AAVSGDVTM: the amyloid nucleation score entry is “inactive”.

Regarding KLWFGHMPTIF, the amyloid nucleation score result is “inactive”.

As to LLRFP, the amyloid nucleation score result is “inactive”.

Consider LVVTTPLRRGKDLDSMRYTC, for which the amyloid nucleation score result was “inactive”.

For the substance QFTGHINRDVNM, the amyloid nucleation score entry was “inactive”.

Regarding LGFFCVIFVS, the amyloid nucleation score result is “inactive”.

Regarding NPIYDSQLPATSCMQAFNAF, the amyloid nucleation score result was “inactive”.

QSMWH: the amyloid nucleation score entry was “inactive”.

With RHEVRRKKSQ, the amyloid nucleation score result is “inactive”.

Turning to TWKHFFIALLRRSNY, the amyloid nucleation score entry was “inactive”.

LLKSGYYKGGFVKGAIRFRE: the amyloid nucleation score entry is “inactive”.

For the substance KLFRIKNGSVEVIWYRNMCQ, the amyloid nucleation score was found to be 0.973 ± 0.14.

In the case of PSHPVPLFHE, the amyloid nucleation score entry is “inactive”.

With HFLHYRPTGNHRLFWIRKDY, the amyloid nucleation score result was “inactive”.

Regarding MGRGWRHGCWLGRILRFWYD, the amyloid nucleation score result is “inactive”.

PGSLI had an amyloid nucleation score of -0.219 ± 0.52.

Regarding LSLCRNKSIKWVFSLMEIL, the amyloid nucleation score entry was “inactive”.

As for AGGSVYKIVEFSCLLFNQKY, the amyloid nucleation score result is “inactive”.

Consider GGCGGVKHAHYNTIEY, for which the amyloid nucleation score entry was “inactive”.

In the case of IVTHSMSSAHINRMNSRQ, the amyloid nucleation score result was “inactive”.

Consider GELPLRVKVKSFHTDTSLRT, for which the amyloid nucleation score result was “inactive”.

With FTAWTLLLSGMFVIASANMA, the amyloid nucleation score entry is “inactive”.

Substance RTRSVLQIWLSFMMLCQACW displayed an amyloid nucleation score of -0.534 ± 1.5.

The substance FLCQFLRFFCIN showed an amyloid nucleation score of 1.04 ± 0.13.

Regarding TRVDGTYKYRLFDLCDAIKF, the amyloid nucleation score entry is “inactive”.

Consider FSFPCRTVAWFWYDFHFIGL, for which the amyloid nucleation score result is “inactive”.

LWLMVFWKINGNMLGCHPEM: the amyloid nucleation score result is “inactive”.

Consider GGNLFSSVS, for which the amyloid nucleation score entry was “inactive”.

In the case of IKKQYINSFIDSATMKGIKV, the amyloid nucleation score result is “inactive”.

For the substance TVNQKPY, the amyloid nucleation score result is “inactive”.

As to IDTISMG, the amyloid nucleation score entry is “inactive”.

On to SKLHAE, for which the amyloid nucleation score result is “inactive”.

YSTMLLVHYMFLKIE: the amyloid nucleation score result was “inactive”.

As for NQVISFWYSIQYCYEYSRNS, the amyloid nucleation score entry was “inactive”.

Regarding TTLMMGTEPGLDTRLSSLCY, the amyloid nucleation score result is “inactive”.

Regarding MRCGKSL, the amyloid nucleation score entry is “inactive”.

Turning to SNLVDGMSWHHFKERIVMLD, the amyloid nucleation score result is “inactive”.

As for SWSGCGLVPSSVSWGYGTCV, the amyloid nucleation score was -0.47 ± 1.9.

In turn, TCTYCRFRLSSLVSW had an amyloid nucleation score of 0.366 ± 0.42.

Consider VRNLVHHPYAFL, for which the amyloid nucleation score result was “inactive”.

Turning to TRSWVYCSKDRSMRGMHHHC, the amyloid nucleation score result was “inactive”.

VTMVSYYTCGEHNKVNILMQ displayed an amyloid nucleation score of 1.42 ± 0.097.

As for LVEVDDASNIDCEAAYCKWY, the amyloid nucleation score result is “inactive”.

Turning to ISPCVPKSAWSIFRIAI, the amyloid nucleation score result was “inactive”.

Turning to PRPSYWHRYSWSTTIVGGIS, the amyloid nucleation score entry is “inactive”.

As to HSSLNGRNG, the amyloid nucleation score result is “inactive”.

As to RAGDNIFWTIAKCTRNTHVM, the amyloid nucleation score result was “inactive”.

With LLAWFHNCRLRLI, the amyloid nucleation score entry was “inactive”.

With CLCFCCCSRVHYGTLFRNSA, the amyloid nucleation score came to 2.98 ± 0.052.

As for GSMTFNYTLEGLNYHNDTKE, the amyloid nucleation score entry was “inactive”.

In the case of VMRFHVLKVLACCVNGGFDL, the amyloid nucleation score worked out at 2.73 ± 0.072.

The substance CWTVMFCF yielded an amyloid nucleation score of 1.43 ± 0.11.

As for MMSFNVPLNAWVLSEFDTTY, the amyloid nucleation score result was “inactive”.

As for VRDIRAIL, the amyloid nucleation score is -0.551 ± 1.1.

On to YILNC, for which the amyloid nucleation score result is “inactive”.

For FMYSFDLWYKRLNCLMMLVF, the amyloid nucleation score entry is “inactive”.

Turning to VFKMACEWSALWWNLLHTYS, the amyloid nucleation score result is “inactive”.

With LCETCKNVARIYSFLIGMTD, the amyloid nucleation score entry was “inactive”.

LLGLCRVLW displayed an amyloid nucleation score of 1.31 ± 0.097.

Take DEMRKGRWHGDRLGRSDRQE: the amyloid nucleation score result is “inactive”.

As to FSNGMVLFF, the amyloid nucleation score result was “inactive”.

Regarding NYKVRLNQDFENRHRYSMDT, the amyloid nucleation score result is “inactive”.

As for CYVDVI, the amyloid nucleation score entry is “inactive”.

With NMRTCSIGSKPIVKFTYMCG, the amyloid nucleation score stood at 1.31 ± 0.15.

Consider RLNWGFTLA, for which the amyloid nucleation score entry is “inactive”.

KPGIRYYFISM yielded an amyloid nucleation score of 1.52 ± 0.12.

Regarding LYTDDAPGDVFLFNAFRVFH, the amyloid nucleation score entry is “inactive”.

As for FTYGMSSVFVGHF, the amyloid nucleation score result was “inactive”.

VRCVVGITVFGIHERVTSER had an amyloid nucleation score of 0.169 ± 0.61.

Turning to TREIIYRDGQALQIAGWVSP, the amyloid nucleation score entry was “inactive”.

Regarding PKIRSF, the amyloid nucleation score entry is “inactive”.

Take VTGIIRRIYLLF: the amyloid nucleation score result was “inactive”.

On to LCLFGLLYNIETFSIVVDYS, for which the amyloid nucleation score entry was “inactive”.

In turn, RFSCEYVATLTLSGRQAVKH came in with an amyloid nucleation score of 0.043 ± 0.72.

With VVLIFWWKSQGMSMIVFVIY, the amyloid nucleation score entry is “inactive”.

For SSDTGRCIKVDALRCRMGSR, the amyloid nucleation score entry is “inactive”.

For the substance GASLYWIP, the amyloid nucleation score is 0.234 ± 0.88.

As to SRFRFMGNVRQFLQPYRRLH, the amyloid nucleation score was found to be 0.347 ± 0.2.

Take VFGPRRPMVNCSN: the amyloid nucleation score result was “inactive”.

Regarding LVLAVVMTFRLRIRLSNLSR, the amyloid nucleation score result was “inactive”.

On to MYLGGKALIRPFPVYATAAW, for which the amyloid nucleation score result is “inactive”.

For DCRWVCKFYPPVFNVIVEKV, the amyloid nucleation score entry is “inactive”.

In the case of HKLVFEHRLLVGPRNVDIFL, the amyloid nucleation score entry is “inactive”.

In the case of LGGTSNLMFGYMK, the amyloid nucleation score entry was “inactive”.

For the substance VYFDDRTYRYRVAHIKFSFR, the amyloid nucleation score amounted to 2.94 ± 0.076.

On to TFYVLRPTYSITRNGAPRPL, for which the amyloid nucleation score result is “inactive”.

With FYCLHSMLKMGEDVRAMNLD, the amyloid nucleation score result was “inactive”.

As to YGDEASPLSFCIDHEDRVKV, the amyloid nucleation score entry is “inactive”.

In the case of SFHTSGSNKGYCCGVMWMDK, the amyloid nucleation score entry was “inactive”.

On to VENVDYFCDFGTISIL, for which the amyloid nucleation score is 1.66 ± 0.087.

As for SVVFLLRIAWYWGLWIVLLL, the amyloid nucleation score result was “inactive”.

In the case of GKGCYLVVCDYTTCTKFLNM, the amyloid nucleation score result was “inactive”.

The substance NYSFWLAIYSPCRSKCYARC gave an amyloid nucleation score of 1.58 ± 0.057.

In the case of SNCTLRE, the amyloid nucleation score result is “inactive”.

For the substance FRYPIYGFFGMTGPTNSLTA, the amyloid nucleation score entry was “inactive”.

In the case of GVFRPMWVLARVDSQNLASL, the amyloid nucleation score result is “inactive”.

Consider VFLKSNSAVQLSFRFNYHNL, for which the amyloid nucleation score entry was “inactive”.

(Values after the supplement of paper PMC12042874.)
